# Measured values: the supplement of paper PMC10724198
# ± gives the standard deviation of the averaged measurements.
# System: Saccharomyces cerevisiae
# Assay: protein stability index of tFT-peptide fusion (C-terminal peptide) (PSI (0-1 scale)); higher = more stable (slower turnover)
# Details: genetic background: wild type; temperature: 30 C
# Method: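 Multiplexed protein stability (MPS) profiling in S. cerevisiae. Random 12-aa peptides (tFT-X12 library) are fused to the C-terminus of a sfGFP-mCherry tandem fluorescent timer, after mCherry and a GGGS linker. Cells are FACS-sorted into 8 mCherry/sfGFP bins and deep-sequenced. The protein stability index (PSI) is the read-weighted bin average, scaled from 0 (unstable) to 1 (stable). Only peptides with >10 reads are reported; cells were grown at 30 °C in SC-His with glucose.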
# 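Further: PSI is a weighted mean of sequencing reads over stability bins, variants kept only with over 10 reads, mCherry proximal and sfGFP distal, peptide attached via GGGS linker.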
row,Sequence,protein stability index
1,ELHPLPLPPPAV,0.743 ± 0.013
2,ELLASVSVSSRF,0.6276 ± 0.0044
3,ELLPFPPPSAPT,0.719 ± 0.022
4,ELLRTGRVLDRE,0.71 ± 0.0076
5,ELRPSTTPLHPS,0.68268 ± 0.00044
6,ELVGLAHVLELA,0.655 ± 0.084
7,ELWGGGFLLMLG,0.599 ± 0.021
8,EMTRELLMRVSK,0.704 ± 0.015
9,EMYLKTPVDRKL,0.678 ± 0.038
10,ENMVLQKRGIKV,0.5024 ± 0.0049
11,ENQKKSKTNRKK,0.658 ± 0.036
12,EPAAGFAICRHH,0.67 ± 0.02
13,EPIKEKKKMGSR,0.63 ± 0.056
14,EPRVGCVGFGIT,0.638 ± 0.013
15,EPSAPYYCVTKG,0.7279 ± 0.002
16,EQENATDRRGRE,0.644 ± 0.026
17,EQFLRCEALGAW,0.661 ± 0.02
18,EQNRINLNRSGL,0.762 ± 0.23
19,EQRSKSHVLPPR,0.737 ± 0.009
20,ERAKMYPKKKIR,0.64 ± 0.067
21,EREALKSCIIRA,0.641 ± 0.014
22,EREGREGKGRER,0.777 ± 0.079
23,ERKKDGRKVRKK,0.658 ± 0.012
24,ERKNTTSEFTNL,0.684 ± 0.0079
25,ERRERGGERNTP,0.658 ± 0.01

row,Sequence,protein stability index
1,ERSHGEKGVFYL,0.73 ± 0.031
2,ESDLRFPGVPCI,0.696 ± 0.011
3,ESHSIIRRRSWW,0.7797 ± 0.0037
4,ESIEVGTGDWVG,0.653 ± 0.013
5,ESKKYQQDNITR,0.608 ± 0.039
6,ESKRKLHSSRYS,0.6875 ± 0.0032
7,ESPPVCFLFSSC,0.711 ± 0.021
8,ESRGKKPDTYTQ,0.707 ± 0.074
9,ESRNEPDQRLCQ,0.686 ± 0.013
10,ESRPRVGLERER,0.676 ± 0.053
11,ESSVLGFWIMSL,0.629 ± 0.041
12,ETARENENTIGE,0.6575 ± 0.0065
13,ETCTRHHPRHNS,0.687 ± 0.043
14,ETEASKGSRNEE,0.627 ± 0.065
15,ETGGQTELKVVH,0.683 ± 0.084
16,ETHHITHHQWKV,0.683 ± 0.05
17,ETKFLVDRKTDI,0.67 ± 0.012
18,ETQEAKGGMTRQ,0.667 ± 0.0091
19,ETSERIEDKDGI,0.698 ± 0.051
20,EVFGAGRNDPGS,0.689 ± 0.018
21,EVGLSVLLPGGG,0.675 ± 0.022
22,EVIRGNEGGKER,0.708 ± 0.018
23,EVPLGLIRLPSV,0.695 ± 0.06
24,EVTEVCTIKVHV,0.577 ± 0.0097
25,EVTVSGEEQRAG,0.6881 ± 0.0044

row,Sequence,protein stability index
1,EVVGILSSVNIA,0.647 ± 0.03
2,EVWMGIRSLSVV,0.634 ± 0.096
3,EWCAVYDQGNRF,0.818 ± 0.11
4,EWGWGRIVNGRE,0.6869 ± 0.0032
5,EWNKMTKEKNVI,0.686 ± 0.017
6,EWNWRSVYGFGE,0.748 ± 0.027
7,EYTRGIRKTRRA,0.608 ± 0.051
8,FACLGPLRRRLG,0.682 ± 0.012
9,FAECVCVVCPLV,0.6319 ± 0.0053
10,FAFLPYKGISSS,0.682 ± 0.05
11,FALERLWFMSVG,0.67 ± 0.031
12,FALPPPPHLNPP,0.6248 ± 0.0021
13,FAPFVPGPSIKY,0.705 ± 0.074
14,FCCTPAPVPPST,0.689 ± 0.016
15,FCEASSSSRISA,0.744 ± 0.088
16,FCFFLLGLFCNL,0.6 ± 0.062
17,FCFLSALTCLCA,0.589 ± 0.021
18,FCGFLFRLSSVL,0.626 ± 0.025
19,FCGLWGVGGVAE,0.704 ± 0.025
20,FCLAPMLLPGSF,0.6785 ± 0.0064
21,FCPSLFLNPHSC,0.6739 ± 0.00084
22,FCSDRPWGPCRR,0.579 ± 0.08
23,FCSSSSFMCFVQ,0.629 ± 0.0082
24,FDAWTHAGMYNW,0.757 ± 0.058
25,FDPSFLSVCRSK,0.72 ± 0.021

row,Sequence,protein stability index
1,FDRQQDLTGMEM,0.769 ± 0.078
2,FERVLVFENRKY,0.728 ± 0.051
3,FESYLRLGLGGR,0.667 ± 0.09
4,FEVSGYRNGRAL,0.694 ± 0.0074
5,FFDSPHCRYACV,0.744 ± 0.009
6,FFFYFPSLNSFV,0.696 ± 0.073
7,FFPLRLLPLVPR,0.645 ± 0.0063
8,FFPPPPPATPPA,0.663 ± 0.072
9,FFSFTTPHLSFA,0.688 ± 0.054
10,FFSISPLLPLPF,0.714 ± 0.2
11,FFSLVHVLFYGF,0.54037 ± 0.00016
12,FFTFTMSIPRWL,0.617 ± 0.055
13,FFVCCGTRLIGL,0.716 ± 0.04
14,FFVRVVGDLRWE,0.583 ± 0.019
15,FFWGRFCLGLWS,0.568 ± 0.067
16,FFWGVFFLGLGW,0.566 ± 0.071
17,FGCLFFSPLSIH,0.745 ± 0.043
18,FGCSRRERKGRG,0.826 ± 0.016
19,FGDRGLGIIYFK,0.7277 ± 0.0023
20,FGFYTYFRPGLG,0.698 ± 0.017
21,FGGGGRGGLLWC,0.764 ± 0.06
22,FGGGSWSMRWSW,0.639 ± 0.024
23,FGGGWGGGVVLV,0.691 ± 0.0086
24,FGGNISIPRSCD,0.7233 ± 0.004
25,FGLWSSCGWWWT,0.64 ± 0.041

row,Sequence,protein stability index
1,FGNFCCRWSLGP,0.66 ± 0.12
2,FGPAQGYCLVGA,0.544 ± 0.025
3,FGRDTDIYLASL,0.691 ± 0.037
4,FGSLCPRAHSLV,0.71 ± 0.011
5,FGSLMFCLLPLH,0.6527 ± 0.0026
6,FGSRYLGVVSGC,0.656 ± 0.037
7,FGVGWGDGFFGV,0.716 ± 0.059
8,FHGSIVQLTFRA,0.603 ± 0.047
9,FHVFTRTVGSVL,0.643 ± 0.075
10,FIHVPAYGNVCV,0.611 ± 0.058
11,FISPLNFPARPS,0.7181 ± 0.0015
12,FIWRFYSLPLGC,0.623 ± 0.069
13,FLASPHPPGLSP,0.693 ± 0.033
14,FLCILTNGCCYQ,0.765 ± 0.052
15,FLFASSGFLGRF,0.67 ± 0.036
16,FLFGLGEIDGVR,0.84 ± 0.034
17,FLFPTLSPITGC,0.612 ± 0.05
18,FLLNPPSLPCYY,0.727 ± 0.034
19,FLLPAGLWSSCC,0.66 ± 0.043
20,FLLSFPCAHFLL,0.598 ± 0.056
21,FLLSILPFISFC,0.527 ± 0.1
22,FLLVLVPFCALF,0.547 ± 0.11
23,FLNLPLSAFVLL,0.583 ± 0.062
24,FLPHSPSLPQLP,0.67 ± 0.013
25,FLPPPLAAPFLF,0.669 ± 0.059

row,Sequence,protein stability index
1,FLQAKSQGEHFR,0.694 ± 0.012
2,FLRGSSKSISAR,0.677 ± 0.061
3,FLSAGLSILAAP,0.683 ± 0.043
4,FLSFECRFPFQW,0.795 ± 0.069
5,FLSFRLCTAAPV,0.559 ± 0.031
6,FLSLGVIARYFL,0.6325 ± 0.0042
7,FLSPPSPWPSFP,0.688 ± 0.059
8,FLSSPPPPLRVP,0.694 ± 0.054
9,FLTPPIPLFSRL,0.783 ± 0.058
10,FLTPPSLSLPPP,0.68 ± 0.0084
11,FMDLVRSVPTGC,0.706 ± 0.046
12,FMFFMGLFVGGW,0.5401 ± 0.0026
13,FMSRDPKDDTET,0.685 ± 0.076
14,FMYSGIVAIPRG,0.661 ± 0.025
15,FNCIFHMLRFLR,0.656 ± 0.074
16,FPCIPAAPPIFL,0.71 ± 0.015
17,FPFFSSIPPRVV,0.574 ± 0.069
18,FPFLPPRSVSPP,0.696 ± 0.12
19,FPGGGARAGVGV,0.724 ± 0.025
20,FPGVRNGSRFPP,0.637 ± 0.0067
21,FPLLAPAVSPHT,0.662 ± 0.071
22,FPPFPPLVPSPP,0.742 ± 0.0049
23,FPPIDLPPPSPS,0.687 ± 0.027
24,FPPLFPLSTFLL,0.56 ± 0.04
25,FPPLPPPPPPLN,0.743 ± 0.065

row,Sequence,protein stability index
1,FPPPPFFFIPLP,0.724 ± 0.048
2,FPPRPPPSPSAH,0.675 ± 0.027
3,FPPTGPPYFPPT,0.615 ± 0.062
4,FPPYHTSSGFDA,0.733 ± 0.066
5,FPSLPSPSPSSH,0.684 ± 0.031
6,FPTFSPRPHPLS,0.72 ± 0.0098
7,FPTSPPLIALLD,0.6692 ± 0.0029
8,FPVSLSSVRMFV,0.6254 ± 0.0032
9,FPWPDLPSLLPQ,0.8 ± 0.14
10,FQMLPLGHQFPQ,0.736 ± 0.0087
11,FRAAGFLAGRYR,0.738 ± 0.039
12,FRDEGYCFADLV,0.71 ± 0.094
13,FRFLFSPSRPPF,0.633 ± 0.05
14,FRFTSSPVFSWL,0.708 ± 0.014
15,FRLGIKFYTLAV,0.514 ± 0.01
16,FRLGTMYDILPL,0.69 ± 0.023
17,FRLPPRPPLTIP,0.6726 ± 0.0062
18,FRLQSLFPYVVK,0.604 ± 0.047
19,FRSHGHLSQNSY,0.679 ± 0.044
20,FSASLLWFKEFW,0.685 ± 0.024
21,FSASLPLSPSPA,0.6784 ± 0.002
22,FSGGGRGLVGEV,0.7 ± 0.039
23,FSGLFAFGRVVV,0.687 ± 0.056
24,FSGLSPPRPEFV,0.708 ± 0.0089
25,FSIRALGSLGVF,0.693 ± 0.027

row,Sequence,protein stability index
1,FSLLPFFRHIFL,0.637 ± 0.025
2,FSLPRHFRLYRR,0.713 ± 0.036
3,FSLPSLLPDPPS,0.579 ± 0.011
4,FSPHTPPRRLPL,0.721 ± 0.066
5,FSPLTFLLSFPL,0.679 ± 0.019
6,FSPSPPPPPFPL,0.659 ± 0.024
7,FSSLLLMEVFLP,0.686 ± 0.011
8,FSVGGLVDGRLW,0.79 ± 0.026
9,FSVPPLPLPPRL,0.757 ± 0.095
10,FSVSSSLSSFRA,0.717 ± 0.03
11,FTSGNSWLAVFL,0.731 ± 0.027
12,FVFSGLSGDFRG,0.649 ± 0.054
13,FVFSIPPPPRPL,0.59 ± 0.15
14,FVLARLTYSILI,0.482 ± 0.047
15,FVLLGVRGGAGW,0.698 ± 0.021
16,FVRWCFGRRVLG,0.619 ± 0.0027
17,FVVGGGALGCYA,0.661 ± 0.019
18,FVVSSLYSYSYR,0.56 ± 0.015
19,FVWAGVGCWSEA,0.723 ± 0.023
20,FVWSGVGGSGVG,0.679 ± 0.028
21,FWERWDLFCGLC,0.702 ± 0.1
